Assay results taken from the supplement of paper PMC10567573.

B1: STK38L (parent)
chain: FLPGGDMMTLLMKKDTLTEEETQF
B2: NETO1 (parent)
chain: KTSLLDQLTNTSGTVIGVTSCIVI

Variants of: B1
Experiment: protein stability index of a GFP-peptide fusion (GPS, HEK-293T) (PSI 1-6); higher = more stable
Conditions: c terminus: a fixed tail appended
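Further: lentivirally expressed fusions sorted by FACS into six bins by GFP to DsRed ratio, PSI derived from sequencing read proportions per bin multiplied by bin number.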

Protein stability index, by site and new letter:
F1: I 3.88, P 4.76, S 4.29, Q 4.79, L 3.71, G 4.51, C 4.39, T 4.68, N 4.66, K 4.54, H 4.48, E 4.92, A 4.91, M 4.39, V 4.67, W 3.49, D 5.25, R 4.39, Y 2.33
L11: P 3.89, I 2.53, A 3.29, Y 2.41, C 2.63, V 3.18, G 2.89, R 3.29, H 3.43, S 3.41, K 3.91, T 3.07, Q 3.89, E 4.25, M 2.56, N 3.4, W 1.56, F 1.84, D 4.19
M8: Y 1.94, Q 3.35, G 3.76, P 3.82, R 3.36, S 4.02, T 4.3, E 4.21, V 2.54, W 1.44, K 3.66, L 2.06, D 4.8, N 4.12, C 3.33, H 3.95, A 3.75, I 2.22, F 1.84
K13: A 2.21
G5: A 2.63, P 2.94, D 4.23, E 3.72, T 3.44, Y 2.63, K 4.21, C 2.94, R 3, I 2.63, F 2.84, L 3.01, M 3.13, Q 2.72, V 2.79, N 3.13, H 2.75, S 3.21
D6: I 1.85, E 2.02, A 1.7, P 1.87, V 2.33, T 1.82, Q 1.96, M 2.54, F 1.96, K 1.98, C 2.24, S 2.07, H 1.72, W 1.4, Y 2.42, L 2.71, N 2.69, R 2.18
T9: A 2.52, S 2.38, N 3.01, M 3.26, L 2.32, W 2.2, K 2.12, G 2.71, I 2.19, C 2.01, F 2.16, P 4.22, R 1.69, Q 2.69, V 1.81, E 3.2, D 4.35, Y 2, H 2.45
L10: A 3.73, Y 2, E 4.71, R 3.32, D 4.67, M 3.16, V 2.98, I 2.64, S 4.07, G 3.79, K 3.11, N 4.26, Q 3.91, P 3.9, C 3.45, T 3.78, H 3.38, F 2.75, W 1.98
P3: T 2.23, M 2.18, A 1.66, C 2.17, W 2.55, S 1.4, L 1.86, E 2.32, Y 1.68, K 2.91, V 2.08, I 2.31, F 2.22, N 1.89, H 1.98, G 2.96, D 2.12, R 2.76, Q 2.31
M7: C 2.63, R 3.61, L 2.43, F 2.23, H 3.72, D 4.85, E 4.77, Y 2.81, G 3.16, I 2.08, K 3.55, V 2.85, Q 3.65, T 3.87, A 4.11, P 3.67, N 3.05, S 3.9
L2: P 2.65, C 1.42, K 4.24, S 2.6, Q 2.15, M 2.33, G 2.23, T 2.54, I 2.07, R 4.15, H 1.91, F 3.08, Y 3.68, W 3, N 3.32, V 1.78, D 4.38, E 4.84
M12: A 2.81, S 3.48, K 3.69, W 1.95, C 3.16, P 3.5, T 3.49, D 4.06, R 3.48, N 3.86, E 3.68, H 3.69, I 2.56, G 3.72, Q 3.25, Y 2.84, F 2.54, V 3.36, L 2.35
G4: Y 2.29, E 3.57, H 3.29, Q 3.36, P 3.95, K 3.27, V 3.39, C 3.09, A 2.78, D 3.84, N 2.76, W 1.82, F 2.41, T 3.34, I 2.35, L 2.42, S 2.61, M 2.35, R 3.26

Variants of: B2
Experiment: as above
Conditions: c terminus: a fixed tail appended

Protein stability index, by site and new letter:
N10: D 2.47, Q 2.33, I 3.08, M 3.51
L5: A 3.63, Y 2.3, E 2.98
T19: I 2.2, A 3.16, S 3.29, H 4.49, Q 3.55
V23: G 1.79, N 2.01, A 2.03, R 2.65
I22: K 2.35, R 1.87, N 1.72
G13: N 3.9, V 2.66, A 2.12
I24: V 2.2, P 2.33, L 3.2, F 1.79, T 1.6, G 1.79
V15: L 4.43, E 2.04, Y 3.74
I16: F 3.68, H 2.67, C 3.8, E 2.85, V 2.48
C21: T 2.88, W 2.62, Y 2.72, L 3.29, P 2.13
V18: C 1.92, P 2.84, K 3.8, N 4.17, R 2.23, W 4.09, L 3.12
T9: R 2.21, L 3.09
K1: H 2.11, N 2.53, I 2.82, S 3
L4: F 2.99, S 1.85, G 4.07, W 3.2, A 2.65, T 3.56
D6: C 4.27, E 3.74, V 2.61
L8: H 3.66, T 3.48, Y 3.41, W 3.83
Q7: H 4.35
S20: N 3.04, W 3.86, G 2.14, V 2.44, Y 2.8, E 4.15, A 3.66
T2: G 3.08, S 2.57, N 2.4
S3: D 2.46, Y 3.56, H 2.43, E 2.86, M 3.37
G17: P 3.45, K 2.64, Q 2.36, Y 1.98, H 3.23, A 2.71
S12: V 3.35, A 2.96, F 2.37, T 2.78, D 3.07, W 1.75, H 2.69
T14: R 3.41, Q 3.41, V 3.29, C 2.61, S 1.94, D 2.58, M 2.62, H 2.62
T11: N 2.29, Y 2.33, S 2.15, W 3.6, L 1.92
